Laboratory results published in the supplement of paper PMC7125110.
± gives the standard error. This sample holds only a part of the variants without activity.

B1: glmS ribozyme (parent)
chain: AUAAAAGCGCCAGAACUACAGAAAUGUAGUUGACGAGGAGGAGGUUUAUCGAAUUUUCGGCGGAUGCCUCCAAA

What was measured:
Settings in all cases: with glucosamine-6-phosphate
glucosamine-6-phosphate [1] = variants of: B1; assay: self-cleavage kobs at 40 uM GlcN6P; higher = faster cleavage; RNA array
Summary of the method: (§1)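 Weighted Michaelis–Menten fits across concentrations supplied kcat and KM, based on kobs from one- or two-exponential decay fits to normalised per-tile medians. The data came from barcoded ribozyme variants transcribed in situ by E. coli RNA polymerase on sequenced MiSeq chips and tracked at 37 °C by a hybridised Cy3 probe. Glucosamine-6-phosphate (40 μM to 10 mM) in HEPES/KCl/Mg(OAc)2 buffer was flowed in.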

glucosamine-6-phosphate [2] = variants of: B1; assay: self-cleavage kobs at 10000 uM GlcN6P; higher = faster cleavage; RNA array
Summary of the method: as §1

glucosamine-6-phosphate [3] = variants of: B1; assay: self-cleavage kobs at 160 uM GlcN6P; higher = faster cleavage; RNA array
Summary of the method: as §1

glucosamine-6-phosphate [4] = variants of: B1; assay: self-cleavage kobs at 640 uM GlcN6P; higher = faster cleavage; RNA array
Summary of the method: as §1

glucosamine-6-phosphate [5] = variants of: B1; assay: self-cleavage kobs at 2500 uM GlcN6P; higher = faster cleavage; RNA array
Summary of the method: as §1

Variant	self-cleavage kobs at 40 uM GlcN6P (glucosamine-6-phosphate [1]) [s⁻¹]	self-cleavage kobs at 10000 uM GlcN6P (glucosamine-6-phosphate [2]) [s⁻¹]	self-cleavage kobs at 160 uM GlcN6P (glucosamine-6-phosphate [3]) [s⁻¹]	self-cleavage kobs at 640 uM GlcN6P (glucosamine-6-phosphate [4]) [s⁻¹]	self-cleavage kobs at 2500 uM GlcN6P (glucosamine-6-phosphate [5]) [s⁻¹]
G29C G41U U46C G62U	< 1e-05	< 1e-05			
A14G A15U G37A	4.55e-05 ± 1.5e-05	0.00249 ± 0.00037			
G60U C70G	< 1e-05	< 1e-05			
G35A C71U	< 1e-05	< 1e-05	< 1e-05	< 1e-05	< 1e-05
G35U A48U	< 1e-05	< 1e-05	< 1e-05	< 1e-05	
C10G C61U	< 1e-05	< 1e-05	< 1e-05	< 1e-05	
G7A U56C C67U C68U	< 1e-05		< 1e-05	< 1e-05	
G37U G40C G44U	< 1e-05				
C68A	< 1e-05	0.000447 ± 7.5e-05	5.51e-05 ± 1.8e-05	0.000539 ± 0.00015	0.000102 ± 4.6e-05
G13A A36G	< 1e-05	< 1e-05	< 1e-05	< 1e-05	< 1e-05
G35U G62C	< 1e-05	< 1e-05	< 1e-05	< 1e-05	< 1e-05
C34A A42G	< 1e-05		< 1e-05	< 1e-05	< 1e-05
A12C A15C A42U U57G C61G C71U	< 1e-05		< 1e-05		< 1e-05
G9A C10G G13U A48U G51U G66C	< 1e-05				
G9U A39U	< 1e-05				
U30G U56G C58U U69C	< 1e-05				
C10A G37C G38A A64U U65C	< 1e-05				< 1e-05
A39G C71A	0.000536 ± 7.8e-05	0.00612 ± 0.0011	0.000645 ± 9.8e-05	0.00173 ± 0.00045	0.00277 ± 0.00061
U54A C68U	0.000391 ± 6.1e-05		0.000218 ± 4.6e-05	0.000767 ± 0.00017	0.000405 ± 0.00011
A12C G29A G35C A52U U54A G60U C67G	< 1e-05				
A39G G40C C67U	< 1e-05	< 1e-05			< 1e-05
G35U U45A U57C C67A C68A	< 1e-05	< 1e-05			
C10G C11U	< 1e-05			< 1e-05	
A53G U69C	0.000897 ± 0.00014	0.00674 ± 0.0018	0.000469 ± 8.4e-05	0.00235 ± 0.00048	0.002 ± 0.00044

Variant	self-cleavage kobs at 40 uM GlcN6P (glucosamine-6-phosphate [1]) [s⁻¹]	self-cleavage kobs at 10000 uM GlcN6P (glucosamine-6-phosphate [2]) [s⁻¹]	self-cleavage kobs at 160 uM GlcN6P (glucosamine-6-phosphate [3]) [s⁻¹]	self-cleavage kobs at 640 uM GlcN6P (glucosamine-6-phosphate [4]) [s⁻¹]	self-cleavage kobs at 2500 uM GlcN6P (glucosamine-6-phosphate [5]) [s⁻¹]
A48C A64G	< 1e-05	6.31e-05 ± 1.3e-05	< 1e-05		
A6G G60A G62C	< 1e-05				
G7U G35C U55G A64C	< 1e-05				
G13C G59U	< 1e-05		< 1e-05	< 1e-05	< 1e-05
C11U U49G C58U G60C	< 1e-05				< 1e-05
G41C U45G U57C G59A C61U	< 1e-05			< 1e-05	< 1e-05
G7U C10G A15U C34A G40U C58G G60C G63A	< 1e-05	< 1e-05		< 1e-05	
G63A	< 1e-05	< 1e-05		< 1e-05	
G35A A39G U57C	< 1e-05	< 1e-05			< 1e-05
A15U C34A A64U C68A	< 1e-05	< 1e-05			
G7A C50U	< 1e-05	< 1e-05	< 1e-05	< 1e-05	< 1e-05
A6C G40C	< 1e-05			< 1e-05	< 1e-05
G9U G13A A36U G38A U65G	< 1e-05	< 1e-05			
C58A G63U U69C	< 1e-05				
C10A U31A C58G C67A	4.23e-05 ± 1.8e-05	3.62e-05 ± 1.5e-05		0.00013 ± 3.4e-05	0.000317 ± 0.00016
G43C U69C	< 1e-05		< 1e-05		
G9U A52G	< 1e-05	< 1e-05	< 1e-05		
G7U G35U A39U	< 1e-05				
U30C A64C	< 1e-05	< 1e-05		< 1e-05	
C16A G35C	< 1e-05	< 1e-05	< 1e-05	< 1e-05	< 1e-05
A53U C61U	< 1e-05		< 1e-05		
G60A G66U	< 1e-05	< 1e-05	< 1e-05	< 1e-05	
A6G U56C	< 1e-05	< 1e-05	< 1e-05	< 1e-05	
A15U G43U U54C G60C C70G	< 1e-05	< 1e-05			

Variant	self-cleavage kobs at 40 uM GlcN6P (glucosamine-6-phosphate [1]) [s⁻¹]	self-cleavage kobs at 10000 uM GlcN6P (glucosamine-6-phosphate [2]) [s⁻¹]	self-cleavage kobs at 160 uM GlcN6P (glucosamine-6-phosphate [3]) [s⁻¹]	self-cleavage kobs at 640 uM GlcN6P (glucosamine-6-phosphate [4]) [s⁻¹]	self-cleavage kobs at 2500 uM GlcN6P (glucosamine-6-phosphate [5]) [s⁻¹]
U30G A48C C70G	< 1e-05				
G7A A12G U47A	< 1e-05				< 1e-05
G32C A36G C61U U69A	< 1e-05				
C8A A14G U57C	< 1e-05			< 1e-05	< 1e-05
A33G C50A A53C G60C	< 1e-05				
A33U U56A C71A	< 1e-05				
G7A U47C	< 1e-05		< 1e-05	< 1e-05	
C10G G43U U65A	< 1e-05				< 1e-05
A48U G59A G66U	< 1e-05	< 1e-05	< 1e-05	< 1e-05	
A42U A48G	< 1e-05		< 1e-05	< 1e-05	
A39U U54G U55G	0.000181 ± 6.2e-05			0.00525 ± 0.0012	0.0171 ± 0.0034
C10G C70U	< 1e-05				
A6U G13C G63U A64G	< 1e-05				
C34G G41A G44U A53U	< 1e-05	< 1e-05			
G35U G63U	< 1e-05	< 1e-05	< 1e-05	< 1e-05	< 1e-05
C50G G62U C68G	0.000123 ± 3.2e-05	9.97e-05 ± 2.5e-05			
G7A A12U A33C C58A A64G	< 1e-05	< 1e-05			
C34U C50G	5.12e-05 ± 1.3e-05		0.000184 ± 3.2e-05	0.000831 ± 0.00035	5.23e-05 ± 2.2e-05
C8G U56G C70U C71A	< 1e-05		< 1e-05	< 1e-05	< 1e-05
C16G A36U C50G C68G	0.000149 ± 4.4e-05	0.000404 ± 7.1e-05	0.000256 ± 4.1e-05	0.000979 ± 0.00021	
A48U C61A C67U	< 1e-05	< 1e-05			< 1e-05
G60C U69C	< 1e-05	< 1e-05			
C16U U47G	0.000296 ± 4.7e-05	0.00951 ± 0.0018	0.000527 ± 0.00011	0.00106 ± 0.00021	0.00142 ± 0.00037
G7A C11G U69A	0.000101 ± 2.8e-05				

Variant	self-cleavage kobs at 40 uM GlcN6P (glucosamine-6-phosphate [1]) [s⁻¹]	self-cleavage kobs at 10000 uM GlcN6P (glucosamine-6-phosphate [2]) [s⁻¹]	self-cleavage kobs at 160 uM GlcN6P (glucosamine-6-phosphate [3]) [s⁻¹]	self-cleavage kobs at 640 uM GlcN6P (glucosamine-6-phosphate [4]) [s⁻¹]	self-cleavage kobs at 2500 uM GlcN6P (glucosamine-6-phosphate [5]) [s⁻¹]
G7A G38C	< 1e-05	< 1e-05	< 1e-05	< 1e-05	< 1e-05
G40A U47A A53U	6.84e-05 ± 2.5e-05				0.000618 ± 0.00018
A42U C61U	< 1e-05	< 1e-05	< 1e-05	< 1e-05	< 1e-05
G7U C8U C67U	< 1e-05				
G37C U46C	< 1e-05				
G38U G43C A64U	< 1e-05				< 1e-05
G13A G60U A64C	< 1e-05				
G7C G38U	< 1e-05	< 1e-05	< 1e-05	< 1e-05	
G32U U49C	< 1e-05		< 1e-05	< 1e-05	< 1e-05
G44C U57C	< 1e-05	< 1e-05	< 1e-05	< 1e-05	< 1e-05
G44U U45C G63A	< 1e-05				
A6C A14C U45G U57C	< 1e-05	< 1e-05			
A14G G32C U49A	< 1e-05	< 1e-05			
G41A C50A C67G	< 1e-05	< 1e-05			
G7A A12U A52U	< 1e-05				
A15U G38U U55C	< 1e-05				
G9C G13U	< 1e-05	< 1e-05	< 1e-05	< 1e-05	< 1e-05
U30C C50A U65A U69G	4.39e-05 ± 1.7e-05	3.19e-05 ± 1.6e-05		0.000207 ± 5.3e-05	5.84e-05 ± 2.3e-05
G62C C67G	< 1e-05	< 1e-05		< 1e-05	< 1e-05
G35A U49G	< 1e-05				
G40A G41C G43U	< 1e-05				
C10U A33G C70U	< 1e-05	< 1e-05			
C16G G43C	< 1e-05	< 1e-05		< 1e-05	
